{"source": "patent US20060026702A1", "about": "“Phosphoinositide 3-kinase mediated inhibition of GPCRs” (DUKE UNIVERSITY, priority 2002, published 2006)", "molecules": {"B1": {"name": "HEAT: 197 amino acid HEAT domain of PI3Kγ, FLAG epitope-tagged (SEQ ID NO: 2), overexpressed in cells (protein, listed as Homo sapiens)", "chain": "MDYKDDDDKHPIALPKHQPTPDDRVRAEMPNQLRKQLEAIIATDTAEDKELLWHFRYESLKHPKAYPKLFSSVKWGQQEIVAKTYQLLARREVWDQSALDVGLTMQLLDCNFSDENVRAIAVQKLESLEDDDVLHYLLQLVQAVKFEPYHDSALARFLLKRGLRNKRIGHFLFWFLRSEIAQSRHYQQRFAVILEAYLRGCGTA", "modifications": "FLAG tag"}}, "format_in_all_cases": "cell-based", "key": {"βARK1/PI3K interaction": {"biological_target": "T1, βARK1/PI3K interaction (Bos taurus, UniProt P21146)", "T1 construct": "recognizes both full length βARK1 and the βARKct; expressed in transfected cells; host or cells: HEK 293", "T1 sequence (P21146 1-689)": "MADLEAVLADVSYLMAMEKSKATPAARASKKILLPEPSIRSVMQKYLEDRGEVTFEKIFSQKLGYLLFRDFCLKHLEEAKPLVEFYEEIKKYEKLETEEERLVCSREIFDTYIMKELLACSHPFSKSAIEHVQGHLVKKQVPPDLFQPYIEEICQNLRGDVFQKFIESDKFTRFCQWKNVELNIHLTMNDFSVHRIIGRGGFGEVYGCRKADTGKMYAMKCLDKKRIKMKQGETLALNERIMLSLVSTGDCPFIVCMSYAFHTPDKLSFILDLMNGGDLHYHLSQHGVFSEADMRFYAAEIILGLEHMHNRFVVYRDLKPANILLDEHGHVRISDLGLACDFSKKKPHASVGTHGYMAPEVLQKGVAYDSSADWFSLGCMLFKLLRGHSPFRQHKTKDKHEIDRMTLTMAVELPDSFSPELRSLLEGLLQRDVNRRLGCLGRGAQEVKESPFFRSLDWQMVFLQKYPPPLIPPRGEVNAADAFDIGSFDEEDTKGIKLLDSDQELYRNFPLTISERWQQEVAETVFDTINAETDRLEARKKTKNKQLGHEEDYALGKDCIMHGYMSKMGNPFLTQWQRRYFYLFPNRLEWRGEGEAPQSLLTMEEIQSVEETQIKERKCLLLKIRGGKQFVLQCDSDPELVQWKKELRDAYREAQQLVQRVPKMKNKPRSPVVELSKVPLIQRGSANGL", "assay": "βARK1 associated PI3K activity in HEK 293 cells co-transfected with HEAT or PI3KΔHEAT", "description": "The present inventors determined that overexpression of the 197 amino acid HEAT domain of PI3K competed for endogenous PI3K binding to βARK1 in living cells. HEK 293 cells were co-transfected with plasmids containing the βARK1 cDNA (2 μg) and increasing concentrations of the HEAT domain cDNA (ranging from 0 to 6 μg). […] The maximal reduction of βARK1 associated PI3K activity occurred when cells were co-transfected with 4 μg of HEAT cDNA (FIG. 9B). Summary results of n=5 experiments. *, p<0.0005. The data was normalized to βARK1 associated PI3K activity in cells transfected with βARK1 only. Furthermore, FLAG tagged HEAT protein co-immunoprecipitated with βARK1 monoclonal antibodies in the co-transfected HEK 293 cells.\nThe absence of the HEAT domain in an otherwise intact PI3K molecule affected the association of βARK1 with endogenous PI3K in cells. HEK 293 cells were co-transfected with plasmids containing cDNAs for βARK1 (2 μg), βARK1 plus HEAT (4 μg), and βARK1 plus PI3KΔHEAT (4 μg). Cell lysates were immunoprecipitated with a βARK1 monoclonal antibody and assayed for the associated PI3K activity. Expression of PI3KΔHEAT had no effect on the endogenous βARK1/PI3K interaction, whereas overexpression of HEAT abolished this interaction (FIGS. 9C and 9D). […] The data was normalized to βARK1 associated PI3K activity in cells transfected with βARK1 only.\nCytosolic and membrane fractions were prepared and analyzed for βARK1 associated PI3K activity. […] Membrane fractions were prepared from the HEK293 cells co-transfected with the βARK1 (2 μg), βARK1 and HEAT domain (4 μg) containing plasmids."}, "V2R-GFP": {"biological_target": "T2, V2R-GFP (Homo sapiens, UniProt P30518)", "T2 construct": "expressed in transfected cells; host or cells: HEK 293", "assay": "Endocytosis of V2R-GFP in live cells by confocal microscopy", "settings": "AVP 10 μM; HEAT co-expressed", "description": "Disruption of the endogenous βARK1/PI3K interaction by the HEAT protein attenuated V2R endocytosis. Endocytosis of V2R-GFP in live cells was monitored for 20 min following AVP (10 μM) stimulation in the absence or presence of HEAT protein co-expression using confocal microscopy. HEK 293 cells were transfected with either GFP-V2R (2 μg)/pRK5 (2 μg) or GFP-V2R (2 μg)/HEAT (2 μg). V2R internalization was followed in the same cell after agonist stimulation. Prior to agonist, the distribution of V2R-GFP was found distinctly at the plasma membrane (FIG. 14, 0 min). Following agonist treatment, there was redistribution of the V2R-GFP into membrane puncta consistent with entry into clathrin coated pits. With time, this was followed by the formation of cytoplasmic aggregates, and then with the complete loss of membrane fluorescence (FIG. 14, 6-24 min). […] In FIG. 14, panels on the left represent cells transfected with the V2R-GFP alone (panels show the same cell monitored at 0, 6, 12, 18, and 24 min following stimulation). Panels on the right represent cell transfected with V2R-GFP and HEAT (panels show the same cell monitored as above). In the absence of HEAT, agonist caused the internalization V2R5 as shown by the formation of distinct cytoplasmic aggregates and complete loss of membrane fluorescence."}, "β2AR": {"system": "β2AR", "assay": "β2AR sequestration in HEK-293 cells by 125I-Cyanopindolol binding", "settings": "1 μM isoproterenol, 0-30 min; FLAG-HEAT co-transfected", "description": "Determination of β2AR Sequestration in HEK-293 Cells by ^125I-Cyanopindolol (CYP) Binding—β2AR sequestration was performed as previously described. Briefly, HEK-293 cells were plated at a density of 2.5×10^6 cells/dish and transfected the following day with plasmids containing either the β2AR (150-250 ng), β2AR (250 ng) and HEAT domain (4 μg), PI3Kγ (4.0 μg) or ΔPI3Kγ (4.0 μg) cDNAs. Twelve hours after transfection cells were split into six well Falcon plates at a density of 750,000 cells/well. […] To determine the amount of internalized receptor, 100 μl aliquots of whole cells were added to 150 μl of binding buffer (75 mM Tris-HCl, 10 mM MgCl2, 5 mM EDTA (pH 7.5)). Total binding was determined in the presence of 175 pM ^125I-CYP alone, the number of internalized receptors were determined by using 175 pM ^125I-CYP plus 100 nM CGP12177, and non-specific binding was determined using 175 pM ^125I-CYP plus 1 μM propranolol. Sequestration was calculated as the ratio of (specific receptor binding of ^125I-CYP in the presence of CGP12177)/(specific receptor binding of ^125I-CYP in the absence of CGP12177)."}}}
{"molecule": "B1", "values": [{"measurement": "endogenous βARK1/PI3K interaction", "setting": "βARK1/PI3K interaction; 4 μg cDNA co-transfected with βARK1", "result": "abolished"}, {"measurement": "agonist-induced translocation of PI3K to the membrane", "setting": "βARK1/PI3K interaction; 10 μM isoproterenol 2 min, HEAT 4 μg", "result": "effectively abolished"}, {"measurement": "βARK1 associated PI3K activity with increasing HEAT cDNA", "setting": "βARK1/PI3K interaction; HEAT cDNA 0 to 6 μg", "result": "effectively competed away"}, {"measurement": "receptor endocytosis (redistribution of V2R-GFP)", "setting": "V2R-GFP", "result": "completely inhibited"}, {"measurement": "attenuation in the rate of β2AR sequestration", "setting": "β2AR", "result": "> 60", "unit": "%"}]}
